The source of these data is patent US20220306729A1.

Changes are numbered by the printed parent chain.

Test [1] addresses T1, ZIKV envelope domain III ([..]), polyhistidine-AviTag, made in HEK-293-6E cells (Zika virus (KJ776791)). The test can be described thus: ELISA on ZIKV EDIII (Table A). The following applies: remark: other sources report otherwise.
The target in test [2] is T1, ZIKV envelope domain III ([..]), …. The test can be described thus: ELISA, biotinylated Z004 on ZEDIII, streptavidin-HRP. The conditions noted are these: remark: other sources report otherwise.

B1: Z055 (MEX84_p4-61) (antibody, V domains shown)
VH: EVQLVQSGAEVKKPGASVKVSCKASGYTFSGYYIHWLRQAPGQGLEWMGWINSNSGGADSGPRFHGRVTMTRDTSINTAYLELTNLRSDDTAVYYCARRTYYDTRFPYWYFDLWGRGTLVTVSS
VL: AIRMTQSPSSLSASVGDRVTITCRASQDIGSYLNWYQQKPGKAPNVLISAASTLQSGVPSRISGIGSGTDFTLTISSLQPEDFATYYCQQSLSAPYTFGQGTKLEIK
On to B1, for which the EC50 in test [1] is 1.88 µg/mL.

B2: Z005 (MEX18_13) (antibody, V domains shown)
VH: EVQLLESGGGLVQPGGSLRLSCAASGFTFSSYAMSWVRQAPGKGLEWVSSFSGIDDSTWYADSVKGRFTISRDNSKSTLYLQMNSLRAEDTAVYYCAKDRLVRGFAEVLDYWGRGTLVTVSS
VL: DIQMTQSPSSLSASVGDRVTITCRASQDISKYLAWYQQRPGKVPNLLIYTASTLQSGVPSRFSGSGSGTHFTLTISSLQPEDVATYYCQKYNSVPWTFGQGTKVEIK
In test [1], B2 gave an EC50 of 0.216 µg/mL.

B3: Z053 (BRA138_65) (antibody, V domains shown)
VH: QLQLQESGPGLVKPSETLSLTCTVSGGSISSYNYYWGWIRQPPGKGLEFIGSIYYTGSTYYNPSLRSRVTISVDTSKNQFSLKLTSVTAADTAVYYCARHGPGMGHNWYFDLWGRGTLVTVSS
VL: EIVLTQSPATLSLSPGERATLSCRASQSISSYLAWYQQKPGQAPRLLIYDASNRAPGIPARFSGSGSGTDFTLTISSLEPEDFAVYYCQQRSTWLTFGGGTKVEIK
Molecule B3 came in with an EC50 in test [1] of 1.68 µg/mL.

B4: Z016 (MEX84_p2-55) (antibody, V domains shown)
VH: QVQLVQSGAEVKKPGASVKLSCKASGYTFTSYYVHWVRQAPGQGLEWMGIINPGNNFVSFAQNFYDRATMTRDTSTNTVYMELTNLQSEDTAVYYCARTLVAPSAQSMYYFDFWGQGTLVTVSS
VL: EIVLTQSPGTLSLSPGERGTLSCRASQYITTGHFAWYQQKPGRAPRLLIYGASVRATGVPDRFSGSGAETDFTLTISRLDPEDVGVYYCQQYGSSPVTFGPGTKVDIK
Regarding B4, in test [1], the EC50 was determined as 0.0724 µg/mL.

B5: Z036 (BRA112_91) (antibody, V domains shown)
VH: EVQLLESGGDLVQPGGSLRLSCAASGFTFSTYGMAWVRQAPGKGLEWLSSISSVDDSKYYAASVKGRFTISRDNSRNTLYLHMNSLRVDDTAVYYCAKDRIPHGLGELYANWGQGTLVTVSS
VL: DIQMTQSPSTLSASVGDRVTITCRASQSISGWLAWYQQKPGKAPRLLMHKASNLYSGVPSRFSGSGSGTEFTLTISSLQPDDFATYYCQHYHSYPYTFGQGTKVEIK
For the molecule B5, in test [1], the EC50 was 0.0172 µg/mL.

B6: Z051 (BRA138_59) (antibody, V domains shown)
VH: QVQLQESGPGLVKPSQTLSLTCTVSGVSISSGGYYYSWFRQLPGKGLEWIGHIYYTGNTHYNPSLRSRLTISVDTSKNQFSLKLSSVTAADTARYYCARAWCEYAAYCWFDPWGRGTLVTVSS
VL: EIVLTQSPGTLSLSPGERATLSCRASQSVTSSYLAWYQHKPGQAPRLLIYGASSRAPGIPDRFSGSGSGTDFTLTISRLEPEDFAVYWCQQYGRSPFTFGQGTKLEIK
Take B6: in test [1], the EC50 turned out to be 1.86 µg/mL.

B7: Z007 (MEX105_50) (antibody, V domains shown)
VH: EVQLLESGGGLVRPGGSLRLSCTASGFTFRRYAMAWVRQAPGKGLEWVSLIYDGDDSTYYAKSVKGRFAISRDNSKNTLSLQMNSLRAEDTAVYYCVKDRDNGWSSIVDWGQGTLVTVSS
VL: DIQMTQSPSTLSASVGDRVTITCRASHSISGWLAWYQQKPGKAPKLLIYQASILESGVPSRFSGSGSGTEFTLTIGSLQPEDFATYFCQQYSTFWTFGQGTKVEIK
B7 returned an EC50 in test [1] of 0.0346 µg/mL.

B8: Z009 (MEX105_64) (antibody, V domains shown)
VH: B7 VH with D53N, K62E, A69T, I70V, K76Q, V93I, K98R
VL: B7 VL with H27R, S28T, S30G, G31S, S56G, G66V, G76R
For the molecule B8, the EC50 in test [1] was 0.0284 µg/mL.

B9: Z008 (MEX105_60) (antibody, V domains shown)
VH: B7 VH with Y32F, Y52W, D53N, K62E, K65R, A69T, K76H, N84R, V93I
VL: B7 VL with H27Q, S28T, S30G, G31N, I53V, G76S
Take B9: the half-maximal effective concentration (EC50) in test [1] was 0.0326 µg/mL.

B10: Z061 (BRA112_36) (antibody, V domains shown)
VH: EVQLVESGGGVVQPGRSLRLSCAASGFTFSISTIHWVRQAPGKGLEYVVVISHDGNTKYYADSVKGRFIISRDNSKNTVFLQMNSLRPVDTAVYYCARGEVGYFDLWGRGTLVTVSS
VL: EIVLTQSPATLSLSPGERATLSCRASQSVSSFLAWYQQKPGQPPRLLIYDASTRATGIPARFSGSGSGTDFTLTISSLEPEDFAVYYCQQRSNWPPITFGQGTRLEIK
On to B10, for which the EC50 in test [1] was 0.311 µg/mL.

B11: Z062 (BRA112_70) (antibody, V domains shown)
VH: EVQLVESGGGVVQPGRSLRLSCAASGFSFSSHAMYWVRQAPGKGLEWVAIVSYDGSTKNYADSVKGRFTISRDNSKNTIYLHLNSLRAEDTAVYFCAREVDGIYGYLHYWGQGTLVTVSS
VL: EIVLTQSPATLSLSPGERATLSCRARQNVRNFLAWYQQKPGQAPRLLIYDASNRATDIPARFSGSGSGTDFTLTISSLEPEDFAVYYCQQRSYSITFGQGTRLEIK
In test [1], B11 returned a concentration for a half-maximal effect (EC50) of 0.208 µg/mL.

B12: Z059 (MEX84_p4-34) (antibody, V domains shown)
VH: EVQLVQSGAEVKTPGSSVKVSCKTSGGTFSNFAITWVRQAPGQGLEWMGGIIPLFGITNYTQKFQGRVTITTDESKTTAYMDLSGLRSEDTAVYFCARGRDSSGRLLDHWGQGTLVTVSS
VL: EIVMTQSPATLSVSPGERATLSCRASQTVNRNLAWYQQKPGQAPRLLIYAASARATGVPARFSGSGSGTEFTLTISSLQSEDFVVYYCQQYNNWPPLTFGGGTKLEIK
Turning to B12, the EC50 in test [1] came out at 0.61 µg/mL.

B13: Z056 (MEX84_p2-94) (antibody, V domains shown)
VH: EVQLVQSGAEVKKPGASVKVSCKASGNTFMGYYFHWVRQAPGQGLEWMGWINPNSGHANIAQTFQGRVTMTRDPSITTAYMELSRLRSDDTAVFYCARGGMLGQLWALDNWGQGTLVTVSS
VL: DIQMTQSPSTLSASVGDRVTITCRASQSISHWLAWYQQRPGEAPKLLIYQASTLESGVPSRFSGSGSGTEFTLSISSLQPDDFATYYCQQYQSSPYTFGQGTKLEIK
In turn, B13 showed an EC50 in test [1] of 0.982 µg/mL.

B14: Z052 (BRA138_62) (antibody, V domains shown)
VH: QVQLQESGPGLVKPSQTLSLTCTVSGGSITGGVYYWNWIRHHPGKGLEWIGYMFYSGDTDYNPSLRSRVTISGDTSKNKFSLNLNSVTAADTAVYYCARAGFDYGSPVSAFDIWGQGTLVTVSS
VL: EIVLTQSPATLSLSPGERATLSCRASQSVSSTYLVWYQQKPGQAPRLLIYGASSRATGIPDRFSGSGSGTDFTLTISRLEPEDFAVYFCQQYAHSPRGYTFGQGTKLEIK
In test [1], B14 had an EC50 of 0.0131 µg/mL.

B15: Z057 (MEX84_p4-54) (antibody, V domains shown)
VH: EVQLVQSGAEVKRPGASVKVSCKASGYTFADYYIHWVRQAPGLGLEWMGWINPKTGFSHYEQTFQGRVTMARDTSIPAAYMELSSLKSDDTAIYYCARGGRINVAEALRYWGQGSLVTVSS
VL: DIQMTQSPSTLSTFVGDRVTITCRASQTIGDWLAWYQQKPGKAPKLLISKATRLESGVPSRFSGSGSETEFSLTINSLQPDDVAAYYCQQYMSYPWTFGQGTKLEIK
Molecule B15 had an EC50 in test [1] of 0.0828 µg/mL.

B16: Z002 (MEX18_27) (antibody, V domains shown)
VH: EVQLLESGGGLVQPGGSLRLSCATSGFTFSTYAMSWVRQAPGKGLEWVSSFSGVDDSTYYAESVKGRFTISRDNSKNTVYLQMTRLRAEDTAVYYCAKDRGPRGVGELFDSWGQGTLVTVSS
VL: DIQMTQSPSTLSASVGDRVTMTCRASQSINRWLAWYQQKPGKAPKLLIYTTSTLKSGVPSRFSGSGSGTEFTLTISSLQPDDFATYYCQHFHSVPWTFGQGTKVEIK
As to B16, the EC50 in test [1] came to 0.0252 µg/mL.

B17: Z004 (MEX18_89) (antibody, V domains shown)
VH: EVQLLESGGGLVQPGGSLRLTCATSGFTFRDYAMSWVRQAPGKGLEWVSSYSGIDDSTYYADSVKGRFTISRDNSKSTLSLHMNSLRAEDSALYFCAKDRGPRGVGELFDSWGQGTLVTVSS
VL: B16 VL with M21I, N30S, R31K, H92Y
For the molecule B17, in test [2], the EC50 turned out to be 0.16 µg/mL.

B18: Z034 (BRA112_09) (antibody, V domains shown)
VH: EVQLLESGGGLAQPGGSLRLSCETSGFTFRSYGMGWVRQAPGKGLEWVSSIYISGDSTYYAASVKGRFTISRDNSKSTLYLQMDRLTAEDTAVYYCVRDRIQGGFGELYRYWGQGTLVTVSS
VL: B16 VL with I29V, R31K, T50E, T53I, K55E, P59S, F91Y, S93G, V94Y
As to B18, the EC50 in test [1] turned out to be 0.0235 µg/mL.

B19: Z011 (MEX105_15) (antibody, V domains shown)
VH: EVQLLESGGGLVQPGGSLRLSCAASGFTFRTYAMSWVRQPPGKGLEWVSSISAREDSTYFAASVRGRFTISRDNSKNTLYLQMNNLRAEDTALYYCAKDRLQLGVGELYESWGQGTLVTVSS
VL: B16 VL with M21I, S28N, R31S, T50M, T51A, T53S, K55Q, I75V, F91Y, V94Y
Regarding B19, in test [1], the EC50 came out at 0.038 µg/mL.

B20: Z003 (MEX18_58) (antibody, V domains shown)
VH: EVQLLESGGGLVQPGGSLRLSCATSGFTFTTFAMSWVRQAPGKGLEWVSSISGADDSTYYAASVKGRFTISRDNSRSTLFLQMNSLRAEDTAVYYCAKDRGPRGVGELFDSWGQGTLVTVSS
VL: B16 VL with M21I, N30S, R31K, K45R, H92F
For the molecule B20, the EC50 in test [1] is 0.0255 µg/mL.

B21: Z050 (BRA138_28) (antibody, V domains shown)
VH: QVQLVQSGAEVKKPGSSVKVSCKAPGGTFSRYSIAWVRQAPGQGLEWMGGINPTFTTPNYAQKFQGRVTITADESTNTAYLDLSSLRSEDTAVYYCARFRYYYESGGYSDASPYYLDYWGQGTLVTVSS
VL: EIVLTQSPATLSLSPGERVTLSCRASQSVSSYLAWYQQKPGQAPRLLIYDASNRATGIPARFTGSGSGTDFTLTISSLEPEDFAVYYCQQRSNWPLTFGGGTKVEIK
In test [1], B21 yielded an EC50 of 0.0303 µg/mL.
